Experiments:
HLA-A*24:03 = assay: IEDB peptide-MHC binding, purified MHC/direct/fluorescence; filed as Kd, often an IC50 or EC50 that approximates it; ≥ and ≤ were set here for values at or beyond the usual limits of such assays; conditions: source organism: Vibrio parahaemolyticus
HLA-A*30:01 = assay: IEDB peptide-MHC binding, purified MHC/competitive/radioactivity; filed as Kd, often an IC50 or EC50 that approximates it; ≥ and ≤ were set here for values at or beyond the usual limits of such assays
HLA-A*11:01 = assay: as above; conditions: source organism: Dengue virus 3 Martinique/1243/1999
HLA-A*26:01 = assay: as above
HLA-B*08:01 = assay: as above
HLA-A*68:02 = assay: as above
HLA-B*51:01 [1] = assay: IEDB peptide-MHC binding, purified MHC/competitive/fluorescence; filed as Kd, often an IC50 or EC50 that approximates it; ≥ and ≤ were set here for values at or beyond the usual limits of such assays
HLA-A*68:01 = assay: IEDB peptide-MHC binding, purified MHC/competitive/radioactivity; filed as Kd, often an IC50 or EC50 that approximates it; ≥ and ≤ were set here for values at or beyond the usual limits of such assays; conditions: source organism: Dengue virus 1 Brazil/97-11/1997
HLA-B*35:01 = assay: as above
HLA-A*02:02 = assay: as above
HLA-A*02:03 = assay: as above
HLA-A*02:06 = assay: as above
HLA-B*15:01 = assay: as above
HLA-A*03:01 = assay: as above; conditions: source organism: Dengue virus 4 Philippines/H241/1956
HLA-A*02:01 = assay: IEDB peptide-MHC binding, purified MHC/competitive/fluorescence; filed as Kd, often an IC50 or EC50 that approximates it; ≥ and ≤ were set here for values at or beyond the usual limits of such assays; conditions: source organism: Variola virus
HLA-B*51:01 [2] = assay: IEDB peptide-MHC binding, purified MHC/competitive/radioactivity; filed as Kd, often an IC50 or EC50 that approximates it; ≥ and ≤ were set here for values at or beyond the usual limits of such assays; conditions: source organism: Dengue virus 4 Philippines/H241/1956
HLA-A*01:01 = assay: as above
HLA-A*23:01 = assay: as above
HLA-A*24:02 = assay: as above
HLA-A*29:02 = assay: as above
HLA-A*30:02 = assay: as above
HLA-B*53:01 = assay: as above; conditions: source organism: Dengue virus 3 Singapore/8120/1995
HLA-B*18:01 = assay: IEDB peptide-MHC binding, purified MHC/direct/fluorescence; filed as Kd, often an IC50 or EC50 that approximates it; ≥ and ≤ were set here for values at or beyond the usual limits of such assays; conditions: source organism: West Nile virus
[3] = source organism: Dengue virus 1 Brazil/97-11/1997
[4] = source organism: Dengue virus 3 Martinique/1243/1999
[5] = source organism: Dengue virus 2 16681-PDK53
[6] = source organism: Vaccinia virus WR
[7] = source organism: Dengue virus 2 Jamaica/1409/1983
[8] = source organism: Mammarenavirus juninense
[9] = source organism: Dengue virus 4 Philippines/H241/1956
[10] = source organism: Mammarenavirus lassaense
[11] = source organism: SARS coronavirus Tor2

Q: AFYLWIVGF was tested. Which Kd (HLA-A*24:03) did it give?
A: 2100 nM

Q: AIFMTATPPG was tested. Which Kd (HLA-A*30:01; [3]) did it give?
A: 179 nM

Q: How did the Kd (HLA-A*11:01) turn out when ATQLATLRK was run?
A: 67.8 nM

Q: What about the Kd (HLA-A*30:01; [4]) of the same sequence?
A: 5.76 nM

Q: For CTILAVVSVS, which Kd (HLA-A*26:01; [5]) is on record?
A: ≥ 69700 nM

Q: And the Kd (HLA-A*30:01; [5])?
A: 9700 nM

Q: DLRRRFDTF was tested. Which Kd (HLA-B*08:01; [6]) did it give?
A: 1.58 nM

Q: With EAAAIFMTA as the sequence, how does the Kd (HLA-A*68:02; [3]) read?
A: 0.301 nM

Q: ELMMATIGI was tested. Which Kd (HLA-A*68:02; [7]) did it give?
A: 1.03 nM

Q: With ENRLHKECL as the sequence, how does the Kd (HLA-B*08:01; [6]) read?
A: 73.2 nM

Q: With EPNFSIPQI as the sequence, how does the Kd (HLA-B*51:01 [1]; source organism: Mycobacterium tuberculosis variant bovis BCG str. Pasteur 1173P2) read?
A: 268 nM

Q: Which results are given for ETACLGKAYA?
A: Kd (HLA-A*26:01; [4]): 207 nM; Kd (HLA-A*68:02; [4]): 3.62 nM

Q: For FALLKFTYL, which Kd (HLA-B*08:01; [6]) is on record?
A: 1.59 nM

Q: For FNKDIFVSL, which Kd (HLA-B*08:01; [6]) is on record?
A: 277 nM

Q: FTNMEVQLIR was tested. Which Kd (HLA-A*68:01) did it give?
A: 87.4 nM

Q: What about the Kd (HLA-B*35:01; [3]) of the same sequence?
A: 14600 nM

Q: For GGALVRNPLS, which Kd (HLA-A*30:01; [7]) is on record?
A: 5290 nM

Q: Which Kd (HLA-A*02:02; [8]) does the source give for GLSQFTQTV here?
A: 3.92 nM

Q: And the Kd (HLA-A*02:03; [8])?
A: 0.699 nM

Q: What about the Kd (HLA-A*02:06; [8]) of the same sequence?
A: 721 nM

Q: What about the Kd (HLA-A*68:02; [8]) of the same sequence?
A: ≥ 26000 nM

Q: What does the source list for GMNSRSTSL?
A: Kd (HLA-A*02:03; [7]): 18.2 nM; Kd (HLA-B*08:01; [7]): 7.81 nM; Kd (HLA-B*15:01; [7]): 86.6 nM

Q: With HASPTLFNA as the sequence, how does the Kd (HLA-A*30:01; [6]) read?
A: 66.3 nM

Q: How did the Kd (HLA-A*30:01; [6]) turn out when HLIFSYAFL was run?
A: 213 nM

Q: Which Kd (HLA-B*08:01; [9]) does the source give for HMILVVVTTL here?
A: 5170 nM

Q: What about the Kd (HLA-B*15:01; [9]) of the same sequence?
A: 408 nM

Q: How did the Kd (HLA-A*30:01; [7]) turn out when IFKLTYQNK was run?
A: 340 nM

Q: What does the source list for ILKNSQGEEV?
A: Kd (HLA-A*02:06; source organism: Homo sapiens): ≥ 72500 nM; Kd (HLA-A*68:02; source organism: Homo sapiens): 2250 nM

Q: Which results are given for ILKRWGQLK?
A: Kd (HLA-A*03:01): 3.58 nM; Kd (HLA-A*30:01; [9]): 318 nM

Q: How did the Kd (HLA-B*08:01; [3]) turn out when IMGQLTWNDL was run?
A: 6490 nM

Q: How did the Kd (HLA-B*51:01 [1]; source organism: Rickettsia typhi str. Wilmington) turn out when IPNDFKELV was run?
A: 446 nM

Q: KAERVIDPRR was tested. Which Kd (HLA-A*30:01; [7]) did it give?
A: 11400 nM

Q: Which Kd (HLA-A*30:01; [7]) does the source give for KARDALDNL here?
A: 71.5 nM

Q: KARNALDNL was tested. Which Kd (HLA-A*30:01; [5]) did it give?
A: 19.7 nM

Q: How did the Kd (HLA-A*30:01; [6]) turn out when KTMMINPFM was run?
A: 0.362 nM

Q: How did the Kd (HLA-A*30:01; [6]) turn out when KVIVRNLNK was run?
A: 1.44 nM

Q: KVKNVHIGG was tested. Which Kd (HLA-A*30:01; [6]) did it give?
A: 0.338 nM

Q: LALDSYWPV was tested. Which Kd (HLA-B*51:01 [1]; source organism: Yersinia pestis Nepal516) did it give?
A: 711 nM

Q: For LDILTEIASL, which Kd (HLA-B*08:01; [9]) is on record?
A: 871 nM

Q: For LIDNPDNNL, which Kd (HLA-A*02:01) is on record?
A: 77.6 nM

Q: For LLITHYAII, which Kd (HLA-A*02:03; [4]) is on record?
A: 18.1 nM

Q: What about the Kd (HLA-B*08:01; [4]) of the same sequence?
A: 371 nM

Q: What does the source list for LLNVKMALDI?
A: Kd (HLA-A*02:03; source organism: Homo sapiens): 83.2 nM; Kd (HLA-A*68:02; source organism: Homo sapiens): 1000 nM

Q: What does the source list for LLSGAGEHL?
A: Kd (HLA-A*02:02; source organism: Homo sapiens): 5.73 nM; Kd (HLA-A*02:03; source organism: Homo sapiens): 19.2 nM; Kd (HLA-A*68:02; source organism: Homo sapiens): ≥ 47200 nM

Q: For LPVYLMTLMK, which Kd (HLA-B*35:01; [9]) is on record?
A: 330 nM

Q: What about the Kd (HLA-B*51:01 [2]) of the same sequence?
A: 7150 nM

Q: LSYEPDNIV was tested. Which Kd (HLA-B*51:01 [1]; source organism: Listeria monocytogenes 10403S) did it give?
A: ≥ 20000 nM

Q: With LVKESMASL as the sequence, how does the Kd (HLA-A*02:02; [6]) read?
A: 1120 nM

Q: What about the Kd (HLA-A*02:03; [6]) of the same sequence?
A: 9.46 nM

Q: And the Kd (HLA-A*02:06; [6])?
A: 136 nM

Q: What about the Kd (HLA-A*30:01; [6]) of the same sequence?
A: 94.8 nM

Q: Which Kd (HLA-A*68:02; [3]) does the source give for MAIGIVSILL here?
A: 15 nM

Q: For MAMVLSIVSL, which Kd (HLA-B*08:01; source organism: Dengue virus 1 Singapore/S275/1990) is on record?
A: 830 nM

Q: With MCPFLFLAV as the sequence, how does the Kd (HLA-A*01:01; [10]) read?
A: 492 nM

Q: What about the Kd (HLA-A*23:01; [10]) of the same sequence?
A: ≥ 51100 nM

Q: And the Kd (HLA-A*24:02; [10])?
A: ≥ 77500 nM

Q: What about the Kd (HLA-A*26:01; [10]) of the same sequence?
A: ≥ 77900 nM

Q: And the Kd (HLA-A*29:02; [10])?
A: 1690 nM

Q: What about the Kd (HLA-A*30:02; [10]) of the same sequence?
A: ≥ 31200 nM

Q: With MPGIFQTTTG as the sequence, how does the Kd (HLA-B*35:01; source organism: Dengue virus 3 Singapore/8120/1995) read?
A: 1180 nM

Q: And the Kd (HLA-B*53:01)?
A: 546 nM

Q: With MRFKKESSL as the sequence, how does the Kd (HLA-B*08:01; [6]) read?
A: 3.4 nM

Q: MRGAKRMAI was tested. Which Kd (HLA-B*08:01; [7]) did it give?
A: 2.44 nM

Q: Which Kd (HLA-B*08:01; [6]) does the source give for MSKIKHKIF here?
A: 0.842 nM

Q: For MSRKFMQVY, which Kd (HLA-A*30:01; [6]) is on record?
A: 1.46 nM

Q: For MVNGVVRLL, which Kd (HLA-A*68:02; [7]) is on record?
A: 25.8 nM

Q: For NEAKVLELL, which Kd (HLA-B*18:01) is on record?
A: 38 nM

Q: What does the source list for NIDATSTGNY?
A: Kd (HLA-A*01:01; [11]): 110 nM; Kd (HLA-A*23:01; [11]): ≥ 70000 nM; Kd (HLA-A*24:02; [11]): ≥ 70300 nM; Kd (HLA-A*26:01; [11]): 897 nM; Kd (HLA-A*29:02; [11]): 5520 nM; Kd (HLA-A*30:02; [11]): 1420 nM

Source: the Immune Epitope Database (IEDB)
